In article PMC8875425 (ACS Central Science, 2022):
Square brackets hold non-standard residues; d marks the D form. pS = N[C@@H](COP(=O)(O)O)C(=O)O

B1: peptide 7 (peptide)
peptide: Ac-LSRRP[pS]YRKILNDLSSDAP-NH2
B2: peptide 7′ (peptide)
peptide: Ac-LKRRP[pS]YRKILNDLSSDAP-NH2

What was measured:
[1] = molecular target: MBP-KIX-apoferritin construct 3 (24-mer double-shell complex) (not stated | mouse); experiment: fluorescence polarisation
[2] = molecular target: KIX domain of CREB-binding protein (CBP) (UniProt P45481 588-672); experiment: fluorescence polarisation
KIX domain of CREB-binding protein (CBP), sequence (P45481 588-672): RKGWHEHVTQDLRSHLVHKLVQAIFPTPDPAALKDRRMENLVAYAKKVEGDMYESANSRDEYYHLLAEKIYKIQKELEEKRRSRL

| Binder | IC50 [1] [µM] | IC50 [2] [µM] |
| --- | --- | --- |
| B1 | 311 | 50 |
| B2 | 170 | 24.2 |
